What was measured:
Test in all cases: ELISA, lysate on plate-bound antigen
[1] = biological target: unrelated Fc-fused recombinant protein
[2] = biological target: human serum albumin (human) (UniProt P02768)
[3] = biological target: T1, recombinant biotinylated PD-L1 (rhPD-L1/Fc Chimera, R&D Systems 156-B7) (human, UniProt Q9NZQ7 19-238, biotinylated (sites not given))
T1 construct: Bought Fc chimera; also called human PD-L1
Method: Streptavidin-coated Maxisorp plates (Nunc catalog 436110) were blocked for 1 h in Starting Block T20 (Pierce) and then coated with biotinylated PD-L1 (using same antigen as in panning) or negative controls (an unrelated Fc-fused recombinant protein and human serum albumin) for 1 h. Plates were rinsed with TBST and diluted lysate was applied to plates for 1 h. Following additional rinses, wells were treated with HRP-conjugated anti-FN3 domain antibody (PAB25) for 1 h and then assayed with POD (Roche catalog 11582950001).

Chain of human serum albumin (human) (P02768 25-609 limits assumed): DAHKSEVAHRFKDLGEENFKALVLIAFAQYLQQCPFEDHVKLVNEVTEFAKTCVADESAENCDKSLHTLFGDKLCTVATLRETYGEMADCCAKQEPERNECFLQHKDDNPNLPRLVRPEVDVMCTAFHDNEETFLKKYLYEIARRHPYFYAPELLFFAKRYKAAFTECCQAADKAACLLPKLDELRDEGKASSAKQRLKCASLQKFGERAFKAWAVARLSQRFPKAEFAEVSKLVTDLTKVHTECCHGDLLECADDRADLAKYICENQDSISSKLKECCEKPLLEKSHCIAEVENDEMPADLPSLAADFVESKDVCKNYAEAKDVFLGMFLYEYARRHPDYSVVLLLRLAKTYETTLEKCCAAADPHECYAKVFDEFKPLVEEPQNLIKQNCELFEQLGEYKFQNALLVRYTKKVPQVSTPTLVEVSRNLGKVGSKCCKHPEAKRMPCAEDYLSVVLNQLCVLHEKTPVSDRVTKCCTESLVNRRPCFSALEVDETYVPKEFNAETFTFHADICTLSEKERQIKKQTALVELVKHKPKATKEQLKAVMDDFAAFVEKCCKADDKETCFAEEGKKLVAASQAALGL
T1 sequence (Q9NZQ7 19-238, change not shown): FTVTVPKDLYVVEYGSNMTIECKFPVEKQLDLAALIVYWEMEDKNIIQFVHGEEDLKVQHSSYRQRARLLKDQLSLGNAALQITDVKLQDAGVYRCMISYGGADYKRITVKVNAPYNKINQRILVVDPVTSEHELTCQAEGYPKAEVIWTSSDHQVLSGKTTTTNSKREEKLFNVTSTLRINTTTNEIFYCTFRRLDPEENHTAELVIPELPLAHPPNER

B1: ISOP121AR5P1A10 (designed binder, not shown: small tags and cut ends)
chain: LPAPKNLVVSRVTEDSARLSWPDWSNSEYFDSFLIQYQESEKVGEAIVLTVPGSERSYDLTGLKPGTEYTVSIYGVYARHRLFVSNPLSAIFTT
notes: FN3 domain; E. coli lysate in the ELISA
ELISA Fc Control (RSU) [1]: 1120 RSU | ELISA HSA (RSU) [2]: 560 RSU | ELISA PD-L1 Fc (RSU) [3]: 789000 RSU

B2: ISOP194AR9P1G7 (designed binder, not shown: small tags and cut ends)
chain: LPAPKNLVVSRVTEDSARLSWGDDFNSEYFDSFLIQYQESEKVGEAIVLTVPGSERSYDLTGLKPGTEYTVSIYGVYTRAVVFTSNPLSAIFTT
notes: as for B1
ELISA Fc Control (RSU) [1]: 1280 RSU | ELISA HSA (RSU) [2]: 560 RSU | ELISA PD-L1 Fc (RSU) [3]: 1.59e+07 RSU

B3: ISOP121GR5P1D7 (designed binder, not shown: small tags and cut ends)
chain: LPAPKNLVVSRVTEDSARLSWTAPDAAFDSFKIWYQERSIVGEAIFLLVPGSERSYDLTGLKPGTEYIVQIFGVKGGPYSNPLWAPFTT
notes: as for B1
ELISA Fc Control (RSU) [1]: 720 RSU | ELISA HSA (RSU) [2]: 720 RSU | ELISA PD-L1 Fc (RSU) [3]: 792000 RSU

B4: ISOP121BR5P1B5 (designed binder, not shown: small tags and cut ends)
chain: LPAPKNLVVSRVTEDSARLSWRKQEQYFDSFLIQYQESEKVGEAIVLTVPGSERSYDLTGLKPGTEYTVSIYGVYQRGYHNWFSNPLSAIFTT
notes: as for B1
ELISA Fc Control (RSU) [1]: 720 RSU | ELISA HSA (RSU) [2]: 400 RSU | ELISA PD-L1 Fc (RSU) [3]: 1.48e+06 RSU

B5: ISOP121BR5P1E7 (designed binder, not shown: small tags and cut ends)
chain: LPAPKNLVVSRVTEDSARLSWRKQEQYFDSFLIQYQESEKVGEAIVLTVPGSERSYDLTGLKPGTEYTVSIYGVKKWPSTTTTSNPLSAIFTT
notes: as for B1
ELISA Fc Control (RSU) [1]: 800 RSU | ELISA HSA (RSU) [2]: 640 RSU | ELISA PD-L1 Fc (RSU) [3]: 412000 RSU

B6: ISOP121BR5P1A2 (designed binder, not shown: small tags and cut ends)
chain: LPAPKNLVVSRVTEDSARLSWRFSQEWFDSFLIQYQESEKVGEAIVLTVPGSERSYDLTGLKPGTEYTVSIYGVYARGIHKWLSNPLSAIFTT
notes: as for B1
ELISA Fc Control (RSU) [1]: 720 RSU | ELISA HSA (RSU) [2]: 800 RSU | ELISA PD-L1 Fc (RSU) [3]: 743000 RSU

B7: ISOP121BR5P1C6 (designed binder, not shown: small tags and cut ends)
chain: LPAPKNLVVSRVTEDSARLSWRKQEQYFDSFLIQYQESEKVGEAIVLTVPGSERSYDLTGLKPGTEYTVSIYGVYSRPKAEFTSNPLSAIFTT
notes: as for B1
ELISA Fc Control (RSU) [1]: 720 RSU | ELISA HSA (RSU) [2]: 720 RSU | ELISA PD-L1 Fc (RSU) [3]: 13400 RSU

B8: ISOP121GR5P1D2 (designed binder, not shown: small tags and cut ends)
chain: LPAPKNLVVSRVTEDSARLSWTAPDAAFDSFHILYQERAQSGEAIGLVVPGSERSYDLTGLKPATEYSVQIFGVKGGKLSNPLWAWFTT
notes: as for B1
ELISA Fc Control (RSU) [1]: 720 RSU | ELISA HSA (RSU) [2]: 640 RSU | ELISA PD-L1 Fc (RSU) [3]: 513000 RSU

B9: ISOP121AR5P1H2 (designed binder, not shown: small tags and cut ends)
chain: LPAPKNLVVSRVTEDSARLSWVIDEFIPLFDSFLIQYQESEKVGEAIVLTVPGSERSYDLTGLKPGTEYTVSIYGVLAKNIGISNPLSAIFTT
notes: as for B1
ELISA Fc Control (RSU) [1]: 880 RSU | ELISA HSA (RSU) [2]: 1120 RSU | ELISA PD-L1 Fc (RSU) [3]: 927000 RSU

B10: ISOP121GR5P1F7 (designed binder, not shown: small tags and cut ends)
chain: LPAPKNLVVSRVTEDSARLSWTAPDAAFDSFGINYVERASEGEAIDLGVPGSERSYDLTGLKPGTEYFVKIFGVKGGIPSVPLWAWFTT
notes: as for B1
ELISA Fc Control (RSU) [1]: 640 RSU | ELISA HSA (RSU) [2]: 720 RSU | ELISA PD-L1 Fc (RSU) [3]: 697000 RSU

B11: ISOP121BR5P1C5 (designed binder, not shown: small tags and cut ends)
chain: LPAPKNLVVSRVTEDSARLSWFRLRIVQTFDSFLIQYQESEKVGEAIVLTVPGSERSYDLTGLKPGTEYTVSIYGVITVVELLQQSNPLSAIFTT
notes: as for B1
ELISA Fc Control (RSU) [1]: 400 RSU | ELISA HSA (RSU) [2]: 720 RSU | ELISA PD-L1 Fc (RSU) [3]: 11700 RSU

B12: ISOP121AR5P1B8 (designed binder, not shown: small tags and cut ends)
chain: LPAPKNLVISRVTEDSARLSWDKRTQFAFDSFLIQYQESEKVGEAIVLTVPGSERSYDLTGLKPGTEYTVSIYGVPTWSGRTQSNPLSAIFTT
notes: as for B1
ELISA Fc Control (RSU) [1]: 640 RSU | ELISA HSA (RSU) [2]: 560 RSU | ELISA PD-L1 Fc (RSU) [3]: 592000 RSU

B13: ISOP121GR5P1F10 (designed binder, not shown: small tags and cut ends)
chain: LPAPKNLVVSRVTEDSARLSWTAPDAAFDSFFIDYVERATVGEAIALNVPGSKRSYALTGLKPGTEYFVKIRGVKGGLKSKPLWAWFTT
notes: as for B1
ELISA Fc Control (RSU) [1]: 640 RSU | ELISA HSA (RSU) [2]: 640 RSU | ELISA PD-L1 Fc (RSU) [3]: 577000 RSU

B14: ISOP121GR5P1G7 (designed binder, not shown: small tags and cut ends)
chain: LPAPKNLVVSRVTEDSARLSWTAPDAAFDSFHIRYHEYDKNGEAIQLYVPGSERSYDLTGLKPGTEYGVYIHGVKGGGRSKPLWAHFTT
notes: as for B1
ELISA Fc Control (RSU) [1]: 800 RSU | ELISA HSA (RSU) [2]: 800 RSU | ELISA PD-L1 Fc (RSU) [3]: 368000 RSU

B15: ISOP194GR9P1E9 (designed binder, not shown: small tags and cut ends)
chain: LPAPKNLVVSRVTEDSARLSWTAPDAAFDSFHIRYHEYDKNGEAIQLYVPGSERSYDLTGLKPGTEYGVFIWGVKGGLKSKPLWAWFTT
notes: as for B1
ELISA Fc Control (RSU) [1]: 720 RSU | ELISA HSA (RSU) [2]: 1200 RSU | ELISA PD-L1 Fc (RSU) [3]: 2.82e+06 RSU

B16: ISOP121AR5P1A8 (designed binder, not shown: small tags and cut ends)
chain: LPAPKNLVVSRVTEDSARLSWGLEWAYQFFDSFLIQYQESEKVGEAIVLTVPGSERSYDLTGLKPGTEYTVSIYGVYLRAIEFYSNPLSAIFTT
notes: as for B1
ELISA Fc Control (RSU) [1]: 560 RSU | ELISA HSA (RSU) [2]: 1040 RSU | ELISA PD-L1 Fc (RSU) [3]: 516000 RSU

B17: ISOP121BR5P1G3 (designed binder, not shown: small tags and cut ends)
chain: LPAPKNLVVSRVTEDSARLSWKQRTSFHFDSFLIQYQESEKVGEAIVLTVPGSERSYDLTGLKPGTEYTVSIYGVPFWQQWQPESNPLSAIFTT
notes: as for B1
ELISA Fc Control (RSU) [1]: 560 RSU | ELISA HSA (RSU) [2]: 640 RSU | ELISA PD-L1 Fc (RSU) [3]: 771000 RSU

B18: ISOP121AR5P1C5 (designed binder, not shown: small tags and cut ends)
chain: LPAPKNLVVSRVTEDSARLSWKRSDDEWFDSFLIQYQESEKVGEAIILTVPGSERSYDLTGLKPGTEYTVSIYGVYQRAALWFSNPLSAIFTT
notes: as for B1
ELISA Fc Control (RSU) [1]: 640 RSU | ELISA HSA (RSU) [2]: 560 RSU | ELISA PD-L1 Fc (RSU) [3]: 732000 RSU

B19: ISOP194AR9P1E3 (designed binder, not shown: small tags and cut ends)
chain: LPAPKNLVVSRVTEDSARLSWKRSDDEWFDSFLIQYQESEKVGEAIVLTVPGSERSYDLTGLKPGTEYTVSIYGVYQRAALWFSNPLSAIFTT
notes: as for B1
ELISA Fc Control (RSU) [1]: 1120 RSU | ELISA HSA (RSU) [2]: 800 RSU | ELISA PD-L1 Fc (RSU) [3]: 4.57e+06 RSU

B20: ISOP121BR5P1D7 (designed binder, not shown: small tags and cut ends)
chain: LPAPKNLGCFSRYRRLSRLSWETPYPSLSNFDSFLIQYQESEKVGEAIVLTVPGSERSYDLTGLKPGTEYTVSIYGVLKLSAAWWPSNPLSAIFTT
notes: as for B1
ELISA Fc Control (RSU) [1]: 800 RSU | ELISA HSA (RSU) [2]: 720 RSU | ELISA PD-L1 Fc (RSU) [3]: 12800 RSU

B21: ISOP121FR5P1H8 (designed binder, not shown: small tags and cut ends)
chain: LPAPKNLVVSRVTEDSARLSWTAPDAAFDSFVIYYSEQHFYGEAIVLTVPGSERSYDLTGLKPGTEYVVKIYGVKGGETSKPLSAIFTT
notes: as for B1
ELISA Fc Control (RSU) [1]: 560 RSU | ELISA HSA (RSU) [2]: 640 RSU | ELISA PD-L1 Fc (RSU) [3]: 431000 RSU

B22: ISOP194HR9P1D11 (designed binder, not shown: small tags and cut ends)
chain: LPAPKNLVVSRVTEDSARLSWTAPDAAFDSFSILYGELIGDGEAIVLTVPGSERSYDLTGLKPGTEYTVYIFGVKGGRYSRPLSAIFTT
notes: as for B1
ELISA Fc Control (RSU) [1]: 480 RSU | ELISA HSA (RSU) [2]: 1680 RSU | ELISA PD-L1 Fc (RSU) [3]: 6.62e+06 RSU

B23: ISOP121FR5P1H9 (designed binder, not shown: small tags and cut ends)
chain: LPAPKNLVVSRVTEDSARLSWTAPDAAFDSFSILYGETAPIGEAIVLTVPGSERSYDLTGLKPGTEYVVYIQGVKGGNYSQPLSAIFTT
notes: as for B1
ELISA Fc Control (RSU) [1]: 720 RSU | ELISA HSA (RSU) [2]: 880 RSU | ELISA PD-L1 Fc (RSU) [3]: 1.2e+06 RSU

B24: ISOP121HR5P1F2 (designed binder, not shown: small tags and cut ends)
chain: LPAPKNLVVSRVTEDSARLSWTAPDAAFDSFTILYGETYSGGEAIVLTVPGSERSYDLTGLKPGTEYVVYIFGVKGGKWSRPLSAIFTT
notes: as for B1
ELISA Fc Control (RSU) [1]: 480 RSU | ELISA HSA (RSU) [2]: 640 RSU | ELISA PD-L1 Fc (RSU) [3]: 907000 RSU

B25: ISOP194HR9P1B2 (designed binder, not shown: small tags and cut ends)
chain: LPAPKNLVVSRVTEDSARLSWTAPDAAFDSFSILYGELIGDGEAIVLTVPGSERSYDLTGLKPGSEYTVYIFGVKGGRYSRPLSAIFTT
notes: as for B1
ELISA Fc Control (RSU) [1]: 400 RSU | ELISA HSA (RSU) [2]: 1840 RSU | ELISA PD-L1 Fc (RSU) [3]: 5.66e+06 RSU

B26: ISOP121AR5P1H1 (designed binder, not shown: small tags and cut ends)
chain: LPAPKNLVVSRVTEDSARLSWKQATKFVFDSFLIQYQESEKVGEAIVLTVPGSERSYDLTGLKPGTEYTVSIYGVPDWFVLESNPLSAIFTT
notes: as for B1
ELISA Fc Control (RSU) [1]: 880 RSU | ELISA HSA (RSU) [2]: 880 RSU | ELISA PD-L1 Fc (RSU) [3]: 1.48e+06 RSU

B27: ISOP121AR5P1E11 (designed binder, not shown: small tags and cut ends)
chain: LPAPKNLVVSRVTEDSARLSWSVQTSFVFDSFLIQYQESEKVGEAIVLTVPGSERSYDLTGLKPGTEYTVSIYGVPLWHGFDSNPLSAIFTT
notes: as for B1
ELISA Fc Control (RSU) [1]: 720 RSU | ELISA HSA (RSU) [2]: 720 RSU | ELISA PD-L1 Fc (RSU) [3]: 1.84e+06 RSU

Reference: patent US20180162928A1 (Janssen / Centocor, published 2018)
